Columns and labels:
[1] = biological target: human insulin receptor, A isoform (human) (UniProt P06213); test: SPA competition with [125I-A14Y]-human insulin, solubilised hIR-A, […] HSA (Ex 25)
[2] = biological target: human insulin receptor, A isoform (human) (UniProt P06213); test: SPA competition with [125I-A14Y]-human insulin, membrane-associated hIR-A, 0.1% HSA (Ex 26)
[3] = biological target: human insulin receptor, B isoform (human) (UniProt P06213); test: SPA competition with [125I-A14Y]-human insulin, membrane-associated hIR-B, 0.1% HSA (Ex 26)
[4] = biological target: human insulin-like growth factor 1 receptor (human) (UniProt P08069); test: SPA competition with [125I-Tyr31]-human IGF-1, membrane-associated hIGF-1R, 0.1% HSA (Ex 26)
[5] = biological target: human insulin receptor, A isoform (human) (UniProt P06213); test: SPA competition with [125I-A14Y]-human insulin, solubilised hIR-A, 0% HSA (Ex 25)

Substance	relative binding affinity (% rel to HI) [1]	relative binding affinity (% rel to HI) [2]	relative binding affinity (% rel to HI) [3]	relative binding affinity (% rel to HI) [4]	relative binding affinity (% rel to HI) [5]
A21A, B3E, desB27, B29K(N(eps)hexadecanedioyl-gGlu-2×OEG), desB30 human insulin (ligand)	3.6 % rel to HI	14.3 % rel to HI	13.2 % rel to HI	0.1 % rel to HI	–
A21A, B3Q, desB27, B29K(N(eps)hexadecanedioyl-4×gGlu), desB30 human insulin (ligand)	8.2 % rel to HI	14.1 % rel to HI	15.4 % rel to HI	–	99.5 % rel to HI
A8H, A21A, B3E, desB27, B29K(N(eps)tetradecanedioyl-4×gGlu), desB30 human insulin (ligand)	135 % rel to HI	88.5 % rel to HI	124 % rel to HI	–	253 % rel to HI
A21A, B3E, desB27, B29K(N(eps)tetradecanedioyl-gGlu-2×OEG), desB30 human insulin (ligand)	22.3 % rel to HI	52.1 % rel to HI	49.6 % rel to HI	–	63.4 % rel to HI
A21A, B3Q, desB27, B29K(N(eps)tetradecanedioyl-gGlu-2×OEG), desB30 human insulin (ligand)	32 % rel to HI	63.8 % rel to HI	48.8 % rel to HI	–	87.7 % rel to HI
A8R, B3E, desB27, B29K(N(eps)tetradecanedioyl-gGlu-2×OEG), desB30 human insulin (ligand)	45.5 % rel to HI	61.3 % rel to HI	67.9 % rel to HI	–	103 % rel to HI
A8H, B3E, desB27, B29K(N(eps)tetradecanedioyl-gGlu-2×OEG), desB30 human insulin (ligand)	70.5 % rel to HI	84.1 % rel to HI	82.1 % rel to HI	–	172 % rel to HI
A21A, B3Q, desB27, B29K(N(eps)tetradecanedioyl-4×gGlu), desB30 human insulin (ligand)	42.4 % rel to HI	49.4 % rel to HI	62.9 % rel to HI	–	104 % rel to HI
A21A, B3Q, desB27, B29K(N(eps)hexadecanedioyl-gGlu-2×OEG), desB30 human insulin (ligand)	5.6 % rel to HI	15.8 % rel to HI	14.6 % rel to HI	–	76.9 % rel to HI

Now from value to substance:

relative binding affinity (% rel to HI) [1]	relative binding affinity (% rel to HI) [2]	relative binding affinity (% rel to HI) [3]	relative binding affinity (% rel to HI) [4]	relative binding affinity (% rel to HI) [5]	Substance
9.2 % rel to HI	28.9 % rel to HI	29 % rel to HI	–	23.8 % rel to HI	A21G, B3E, desB27, B29K(N(eps)tetradecanedioyl-gGlu-2×OEG), desB30 human insulin (ligand)
82.3 % rel to HI	83.7 % rel to HI	81.9 % rel to HI	–	225 % rel to HI	A8H, A21A, B3E, desB27, B29K(N(eps)tetradecanedioyl-gGlu-2×OEG), desB30 human insulin (ligand)
–	–	–	4.1 % rel to HI	–	B3Q, desB27, B29K(N(eps)tetradecanedioyl-4×gGlu), desB30 human insulin (from UniProt P01308 90-110) (ligand)
32.3 % rel to HI	40.5 % rel to HI	42.3 % rel to HI	–	70.5 % rel to HI	A21A, B3E, desB27, B29K(N(eps)tetradecanedioyl-4×gGlu), desB30 human insulin (ligand)
37.4 % rel to HI	31 % rel to HI	36.8 % rel to HI	–	63.8 % rel to HI	A14E, A21A, B3Q, desB27, B29K(N(eps)tetradecanedioyl-4×gGlu), desB30 human insulin (ligand)
6.2 % rel to HI	14.2 % rel to HI	15 % rel to HI	–	69 % rel to HI	A21A, B3E, desB27, B29K(N(eps)hexadecanedioyl-4×gGlu), desB30 human insulin (ligand)
42.4 % rel to HI	89.6 % rel to HI	90.2 % rel to HI	–	100 % rel to HI	A8H, A21G, B3E, desB27, B29K(N(eps)tetradecanedioyl-gGlu-2×OEG), desB30 human insulin (ligand)

Source: patent US20180244743A1
